Test results from patent WO2015116852A1 (dated 2015).

T1: Recombinant human monomeric IL-6R protein (human, UniProt P08887 20-358)
T1 construct: also called monomeric hIL-6R; human receptor
T1 sequence: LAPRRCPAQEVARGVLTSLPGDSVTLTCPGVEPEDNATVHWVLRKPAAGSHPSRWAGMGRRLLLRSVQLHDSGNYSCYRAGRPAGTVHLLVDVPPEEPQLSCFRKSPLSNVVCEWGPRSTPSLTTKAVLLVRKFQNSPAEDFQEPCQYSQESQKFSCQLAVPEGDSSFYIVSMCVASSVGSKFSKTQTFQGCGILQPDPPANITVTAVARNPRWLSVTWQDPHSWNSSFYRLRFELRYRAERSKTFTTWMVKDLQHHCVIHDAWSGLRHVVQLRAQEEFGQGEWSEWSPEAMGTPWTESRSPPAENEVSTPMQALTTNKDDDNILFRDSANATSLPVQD

T2: Recombinant monkey monomeric IL-6R protein (Macaca fascicularis, extracellular domain) (Macaca fascicularis, UniProt P08887 21-330 (human entry))
T2 construct: also called monkey IL-6R; monkey receptor
T2 chain: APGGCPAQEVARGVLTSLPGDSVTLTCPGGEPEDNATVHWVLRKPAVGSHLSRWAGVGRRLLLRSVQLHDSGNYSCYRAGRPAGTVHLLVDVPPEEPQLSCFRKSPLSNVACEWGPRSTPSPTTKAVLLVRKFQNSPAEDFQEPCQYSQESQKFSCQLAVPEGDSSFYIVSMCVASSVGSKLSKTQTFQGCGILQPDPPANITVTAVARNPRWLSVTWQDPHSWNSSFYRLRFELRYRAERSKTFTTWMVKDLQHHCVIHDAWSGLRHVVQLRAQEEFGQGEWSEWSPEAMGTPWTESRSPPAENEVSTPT

T3: hIL-6R recombinant protein (human, UniProt P08887 20-358)
T3 construct: also called hlL-6R recombinant protein; human IL-6R
T3 sequence: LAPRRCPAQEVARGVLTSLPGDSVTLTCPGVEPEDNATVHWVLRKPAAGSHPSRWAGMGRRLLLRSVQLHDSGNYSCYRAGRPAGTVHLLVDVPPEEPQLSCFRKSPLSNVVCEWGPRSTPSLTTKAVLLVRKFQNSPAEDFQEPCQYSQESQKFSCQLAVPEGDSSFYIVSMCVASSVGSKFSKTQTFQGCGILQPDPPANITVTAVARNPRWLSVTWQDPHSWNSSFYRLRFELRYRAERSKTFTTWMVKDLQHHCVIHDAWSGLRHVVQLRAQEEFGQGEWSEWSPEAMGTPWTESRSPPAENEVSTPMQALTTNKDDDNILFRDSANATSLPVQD


Columns and labels:
[1] = target: T1, Recombinant human monomeric IL-6R …; test: BIAcore, antibody captured on anti-mouse Fc, monomeric receptor injected
[2] = target: T2, Recombinant monkey monomeric IL-6R …; test: as above
[3] = target: T3, hIL-6R recombinant protein; test: competition ELISA on plate-coated hIL-6R, competitor control antibody; similar SPR experiment

Binder | Kd [1] [nM] | binding result [2] | binding result [3]
VV1G4-7 (antibody, V domains shown, also called W1 G4; W1 G4-7) VH: QVQLVQSGAEVKEPGASVKVSCKASGYTFTSYDIIWVRQATGQGLEWMGWMNPNSGNTGYTQNLQGRVTLTRNTSITTVYMELSSLSSEDTAVYYCARDYSSHYYGLDVWGQGTTVTVSS VL: DIQLTQSPSFLSTSIGDRVTITCWASQDISNYLAWYQQKPGKAPKLLIFVASTLQSGVPSRFSGSGSGTEFTLTISSLQPEDFATYYCQQFNSYPLTFGGGTKVEIK | 0.241 | no binding (tested: 1.25 - 40 nM) | –
VV6F12-11 (antibody, V domains shown) VH: QVQLVQSGAEVKEPGASVKISCKASGYTFTSYDIIWVRQATGQGLEWMGWMNPNSGDRGYTQNLQGRVTLTRDTSISTVYMELSSLRSEDTAVYYCARDYSNHYYGLDVWGQGTTVTVSS VL: DIQLTQSPSFLSASVGDRVTITCWASQDISNYLAWYQQKPGKAPKLLIFVASTLQSGVPSRFSGSGSGTEFTLTISSLQPEDFATYYCQQFNSYPLTFGGGTKVEIR | – | – | binds
VV3D8-4 (antibody, V domains shown, also called W3D8) VH: EVQLVESGGGLVQPGRSLRLSCAASGFTFDDYALHWVRQAPGKGLEWVSGISWNSGRIGYADSVKGRFTISRDNAKNSLFLQMNSLRAEDTALYYCAKGRDAFDIWGQGTLVTVSS VL: DIQMTQSPSSVSASVGDRVTITCRASQGISSWLAWYQQKPGKAPKLLIYAASSLQSGVPSRFSGSGSGTDFTLTISSLQPEDFATYYCQQANSFPYTFGQGTKLEIK | – | – | binds
VV6A9-5 (antibody, V domains shown, also called W6A9-5) VH: EVQLVESGGGLVQPGRSLRLSCAASGFTFDDYALHWVRQAPGKGLEWVSGVSWNGGRIGYADSVKGRFTISRDNAKNSLFLQMNSLRVEDTALYYCAKGRDAFDIWGQGTLVTVSS VL: DIQMTQSPSSVSASVGDRVTITCRASQGISSWLAWYQQKPGKAPKLLIYAASSLQSGVPSRFSGSGSGTDFTLTISSLQPEDFATYYCQHAYSFPYTFGQGTKLEIK | – | binds | binds

More lines, now with the values ahead:

Kd [1] [nM] | binding result [2] | binding result [3] | Binder
– | binds | binds | VQ8F11-21 (antibody, V domains shown, also called mAb1; sarilumab) VH: EVQLVESGGGLVQPGRSLRLSCAASRFTFDDYAMHWVRQAPGKGLEWVSGISWNSGRIGYADSVKGRFTISRDNAENSLFLQMNGLRAEDTALYYCAKGRDSFDIWGQGTMVTVSS VL: DIQMTQSPSSVSASVGDRVTITCRASQGISSWLAWYQQKPGKAPKLLIYGASSLESGVPSRFSGSGSGTDFTLTISSLQPEDFASYYCQQANSFPYTFGQGTKLEIK
– | binds | binds | VQ8A9-6 (antibody, V domains shown) VH: EVQLVESGGNLVQPGRSLRLSCAASGFIFDDYAMHWVRQAPGKGLEWVSGISWNSGSIGYADSVKGRFTISRDNAKNSLYLQMNSLRAEDTALYYCAKDGGSSWLPFVYYYGMDVWGQGTTVTVSS VL: EIVMTQSPATLSVSPGERATLSCRASQSISSNFAWYQQKPGQAPRLLIYGASTRATGIPARFSGSGSGTDFTLTISSLQSEDFAVYYCQQYSSWPPYTFGQGTKLEIK
– | – | binds | VV9A6-11 (antibody, V domains shown, also called W9A6) VH: QVQLVQSGAEVKKPGASVKVSCKASGYTFTSYGISWVRQAPGQGLEWMGWISAYNDDTNYAQKFQGRVTMTTDTSTSTAYMELRSLRSDDTAVYYCAREAQLVLYYYYGMDVWGQGTTVTVSS VL: EIVLTQSPATLSLSPGERATLSCRASQSVSSFLAWNQQKPGQAPRLLIYDASNRATGIPARFSGSGSGTDFTLTISSLEPEDFAVYYCQQRSNWPYIFGQGTKLEIK
– | – | binds | VV6C10-3 (antibody, V domains shown, also called W6C10-3) VH: QVQLVQSGAEVKKPGASVKVSCKASGFNFFHYGITWVRQAPGQGLEWMGWISTYNGDTIYAQKVQGRVTMTTDTATSTAYMELRSLRSDDTAVYYCARSEQQVDYYFYGMDVWGQGTTVTVSS VL: EIVLTQSPATLSLSPGERATLSCRASQSVSSYLAWYQQKPGQAPRLLIYDASNRATGIPARFSGSGSGTDFTLTISSLEPEDFAFYYCQQRNNRPPFTFGPGTKVDVR
